Values quoted from earlier work, collected in PMC6406280.

target: T1, thrombin (UniProt P00734+P00734); test: thrombin inhibition (apparent Ki); conditions: no binding assay done in this paper (SEC, CD/UV melting, analysis of published structures); conditions of the cited assays not in the material

Substance | Ki
CACTGGTAGGTTGGGTAGGGTGGGGCCAGTG [jja] | 1.2 nM
CGCCTAGGTTGGGTAGGGTGGTGGCG [NU172 (aaa)] | 0.29 nM
CACTGGTAGGTTGGTGTGGTTGGTCCAGTG [jaj] | 14.2 nM
CACTGGTAGGTTGGGTAGGGTGGTCCAGTG [jaa] | 1.34 nM
CGCCTAGGTTGGTGTGGTTGGTGGCG [aaj] | 13.4 nM
CGCCTAGGTTGGGTAGGGTGGGGGGCG [aja] | 13.2 nM
CACTGGTAGGTTGGTGTGGTTGGGGCCAGTG [31-TBA (jjj)] | 0.34 nM
CGCCTAGGTTGGTGTGGTTGGGGGGCG [ajj] | 48.6 nM

target: T1, thrombin; test: not stated (cited; equals the aKi); conditions: no binding assay done in this paper (SEC, CD/UV melting, analysis of published structures); conditions of the cited assays not in the material

Substance | Kd
CGCCTAGGTTGGGTAGGGTGGTGGCG [NU172 (aaa)] | 0.29 nM

target: T1, thrombin; test: not stated (cited); conditions: modified TBA, not described; no binding assay done in this paper (SEC, CD/UV melting, analysis of published structures); conditions of the cited assays not in the material

Substance | Kd
mTBA | 25 nM

same assay, conditions: no binding assay done in this paper (SEC, CD/UV melting, analysis of published structures); conditions of the cited assays not in the material

Substance | Kd
CGCCTAGGTTGGGTAGGGTGGTGGCG [NU172 (aaa)] | 35 nM
RE31 | 0.56 nM
